Data published in patent EP0853661B1 (CAMBRIDGE ANTIBODY TECHNOLOGY LIMITED, dated 2000).
Numbering of substitutions follows the chain as printed.

T1: human TGFβ2 (transforming growth factor beta 2) (human, UniProt P61812 303-414)
T1 sequence (looked up): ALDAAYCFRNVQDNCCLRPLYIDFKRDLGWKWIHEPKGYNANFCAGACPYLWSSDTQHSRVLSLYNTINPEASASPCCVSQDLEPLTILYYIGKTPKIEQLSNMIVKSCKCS

T2: TGFβ3 (transforming growth factor beta 3) (UniProt P10600 301-412)
T2 construct: mature; also called TGFbeta3
T2 sequence (looked up): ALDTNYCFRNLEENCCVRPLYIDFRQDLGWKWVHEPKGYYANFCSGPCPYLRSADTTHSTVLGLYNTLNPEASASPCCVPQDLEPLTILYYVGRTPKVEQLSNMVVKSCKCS

B1: 6H1 scFv (scFv)
chain: EVQLVESGGGVVQPGRSLRLSCAASGFTFSSYGMHWVRQAPGKGLEWVAVIWYDGSNKYYADSVKGRFTISRDNSKNTLYLQMDSLRAEDTAVYYCGRTLESSLWGQGTLVTVSSGGGGSGGGGSGGGGSDVVMTQSPSSLSASVGDRVTITCRASQGISNYLAWYQQKPGKAPKLLIYKASTLESGVPSRFSGSGSGTEFTLTISSLQPEDFATYYCQQSYSTPRTFGQGTKVDIKR
B2: 6B1 IgG4 (antibody, V domains shown)
VH: EVQLVESGGGVVQPGRSLRLSCAASGFTFSSYGMHWVRQAPGKGLEWVAVIWYDGSNKYYADSVKGRFTISRDNSKNTLYLQMDSLRAEDTAVYYCGRTLESSLWGQGTLVTVSS
VL: SSELTQDPAVSVALGQTVRITCQGDSLRSYYASWYQQKPGQAPVLVIYGKNNRPSGIPDRFSGSSSGNTASLTITGAQAEDEADYYCNSRDSSSTHRGVFGGGTKLTVLG
B3: 6H1 IgG4 (antibody, V domains shown)
VH: B2 VH
VL: DVVMTQSPSSLSASVGDRVTITCRASQGISNYLAWYQQKPGKAPKLLIYKASTLESGVPSRFSGSGSGTEFTLTISSLQPEDFATYYCQQSYSTPRTFGQGTKVDIKR
B4: 6B1 scFv (scFv)
chain: EVQLVESGGGVVQPGRSLRLSCAASGFTFSSYGMHWVRQAPGKGLEWVAVIWYDGSNKYYADSVKGRFTISRDNSKNTLYLQMDSLRAEDTAVYYCGRTLESSLWGQGTLVTVSSGGGGSGGGGSGGGGSSSELTQDPAVSVALGQTVRITCQGDSLRSYYASWYQQKPGQAPVLVIYGKNNRPSGIPDRFSGSSSGNTASLTITGAQAEDEADYYCNSRDSSSTHRGVFGGGTKLTVLG
B5: 6A5 scFv (scFv)
chain: EVQLVESGGGVVQPGRSLRLSCAASGFTFSSYGMHWVRQAPGKGLEWVAVIWYDGSNKYYADSVKGRFTISRDNSKNTLYLQMDSLRAEDTAVYYCGRTLESSLWGQGTLVTVSSGGGGSGGGGSGGGGSSSELTQDPAVSVALGQTVRITCQGDSLRSYYASWYQQKPGQAPVLVIYGKNNRPSGIPDRFAGSNSGNTASLTITGAQAEDEADYYCSSRDSSGNHVVFGGGTKLTVLG
B6: 6A5 IgG4 (antibody, V domains shown)
VH: B2 VH
VL: SSELTQDPAVSVALGQTVRITCQGDSLRSYYASWYQQKPGQAPVLVIYGKNNRPSGIPDRFAGSNSGNTASLTITGAQAEDEADYYCSSRDSSGNHVVFGGGTKLTVLG
B7: 14F12 scFv (scFv)
chain: EIQLVESGGGVVQPGRSLRLSCAASGFTFSSYAMHWVRQAPAKGLEWVAVISYDGSNKYYADSVKGRFTISRDNSKNTLYLQMNSLRAEDTAVYYCARAGLETTWGQGTLVTVSSSGGGGGSGGGGSGGGGSSSELTQDPAVSVALGQTVRITCQGDSLRNYYANWYQQKPGQAPVLVIYGKNNRPSGIPDRFSGSSSGNTASLTITGARAEDEGVYYCNSRDSSGAVFGGGTKLTVLG
B8: 27C1/10A6 IgG4 (antibody, V domains shown)
VH: QVQLVESGGGVVQPGRSLRLSCAASGLTFSSYDMHWVRQPPAKGLEWVAVISYDGSSKYYADSVKGRFTISRDNSKNTLYLQMNSLRAEDTAVYYCARTGEYSGYDTSGVELWGQGTTVTVSS
VL: B2 VL with S1H, S2V, E3I, R28K, K50E, N52S, S94G, R97L, G98E
B9: 10A6 scFv (scFv)
chain: QVQLVESGGGVVQPGRSLRLSCAASGFTFSSYGMHWVRQAPGKGLEWVAVISYDGSNKYYADSVKGRFTISRDNSKNTLYLQMNSLRAEDTAVYYCAKTGEYSGYDSSGVDVWGKGTTVTVSSGGGGSGGGGSGGGGSHVILTQDPAVSVALGQTVRITCQGDSLKSYYASWYQQKPGQAPVLVIYGENSRPSGIPDRFSGSSSGNTASLTITGAQAEDEADYYCNSRDSSGTHLEVFGGGTKLTVLG

Assays:
[1] = target: T1, human TGFβ2 (transforming growth factor …); test: cell-based or functional assay
[2] = target: T3, human TGFβ1 (transforming growth factor beta 1) (human, UniProt P01137 279-390); test: BIACore, scFv (35µl) injected over amine-coupled antigen on CM5 chip; chip as printed
T3 construct: mature; Active dimer; also called TGFbeta1

[3] = target: T1, human TGFβ2 (transforming growth factor …); test: as above
[4] = target: T2, TGFβ3 (transforming growth factor beta …); test: BIAcore 2000, antigen immobilised, antibody as analyte
[5] = target: T2, TGFβ3 (transforming growth factor beta …); test: BIAcore 2000, antigen immobilised, antibody as analyte; koff divided by kon
[6] = target: T2, TGFβ3 (transforming growth factor beta …); test: cell-based or functional assay
[7] = target: T1, human TGFβ2 (transforming growth factor …); test: cell-based or functional assay; remark: listed apart in the source
[8] = target: T2, TGFβ3 (transforming growth factor beta …); test: BIAcore 2000, ratio of dissociation constants
[9] = target: T2, TGFβ3 (transforming growth factor beta …); test: A549 cell radioreceptor assay, inhibition of 125I-TGFβ3 binding to receptors
[10] = target: T2, TGFβ3 (transforming growth factor beta …); test: A549 cell radioreceptor assay
[11] = target: T2, TGFβ3 (transforming growth factor beta …); test: cell-based or functional assay; remark: listed apart in the source
[12] = target: T1, human TGFβ2 (transforming growth factor …); test: BIACore, IgG4 over TGFβ2-coated chip
[13] = target: T3, human TGFβ1 (transforming growth factor …); test: specificity ELISA, TGFβ isoforms coated at 0.2µg/ml

T3 sequence (P01137 279-390 limits assumed): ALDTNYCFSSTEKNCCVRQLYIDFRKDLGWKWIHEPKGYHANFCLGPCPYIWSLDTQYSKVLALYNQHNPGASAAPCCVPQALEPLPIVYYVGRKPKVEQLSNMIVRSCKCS

Row | Binder | I.C.50 in TF1 assay (neutralisation of the TGFβ2 inhibition of IL-5 induced TF1 cell proliferation) [1] [nM] | total increase in resonance units (RU) [2] [RU] | total increase in resonance units (RU) [3] [RU] | further results
1 | B1 | 1.5 | 686 | 77 | –
2 | B2 | 11 | – | – | koff [4]: 0.00045 s⁻¹; kon [4]: 45000 M⁻¹ s⁻¹; Kd [5]: 10 nM; TF1 cell proliferation assay IC50 (nM IgG) [6]: 11 nM; IC50 in the TF1 neutralisation assay (6B1 IgG4 from cell line 5D8-2A6) [7]: 1.8 nM; cross-reactivity with TGFβ3 (ratio of dissociation constants for TGFβ3 and TGFβ2) [8]: 9%; IC50 [9]: 4 nM; cross-reactivity with TGFβ3 relative to TGFβ2 [10]: < 2%
3 | B3 | 100 | – | – | IC50 of neutralisation of TGFβ3 in the TF1 cell proliferation assay [11]: ~20 nM; IC50 in the TF1 neutralisation assay (6H1 IgG4 from a CHO cell line) [7]: 15 nM; IC50 of neutralisation of TGFβ2 in the TF1 cell proliferation assay [7]: 12 nM
4 | B4 | 15 | – | – | –
5 | B5 | 8 | 480 | 71 | –
6 | B6 | 150 | – | – | –
7 | B7 | 90 | 616 | 115 | –
8 | B8 | – | – | – | fold higher dissociation constant for TGFβ2 compared to TGFβ1 [12]: ≥ 10 fold
9 | B9 | – | – | – | fold ELISA signal on TGFβ1 against the signal on TGFβ2 and TGFβ3 [13]: ≥ 5 fold
